Results as given in the supplement of paper PMC5998384.

Legend:
[1] = tested on: HeLa Kyoto; assay: solubility change mitosis vs G1/S (difference of NP-40 vs SDS log2 ratios) (log2 ratio difference); higher = more soluble in mitosis
[2] = tested on: HeLa Kyoto; assay: melting temperature (median over replicates), in situ; higher = more thermally stable
[3] = tested on: HeLa Kyoto; assay: solubility in G1/S (NP-40 vs SDS abundance) (log2 ratio); higher = more soluble; details: cell cycle stage: G1/S
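For melting temperature (median over replicates), in situ in this document: HeLa Kyoto cells synchronized by double thymidine or nocodazole block, proteins quantified by TMT10plex mass spectrometry, three independent biological replicates.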
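For solubility change mitosis vs G1/S (difference of NP-40 vs SDS log2 ratios) in this document: synchronized HeLa Kyoto cells (double thymidine block for G1/S, nocodazole release for mitosis), protein amounts in NP-40 versus SDS lysates quantified by mass spectrometry, three biological replicates.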
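For solubility in G1/S (NP-40 vs SDS abundance) in this document: HeLa Kyoto cells arrested at G1/S by double thymidine block, proteins quantified by TMT10plex mass spectrometry in mild NP-40 versus SDS extracts, three biological replicates.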

Sequence of LLPH (chain, as listed by the source): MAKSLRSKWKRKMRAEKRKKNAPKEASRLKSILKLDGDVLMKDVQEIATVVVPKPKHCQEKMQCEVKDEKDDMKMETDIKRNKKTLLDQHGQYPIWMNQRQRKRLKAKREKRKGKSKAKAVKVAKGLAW
Sequence of UBE2D1 (chain, as listed by the source): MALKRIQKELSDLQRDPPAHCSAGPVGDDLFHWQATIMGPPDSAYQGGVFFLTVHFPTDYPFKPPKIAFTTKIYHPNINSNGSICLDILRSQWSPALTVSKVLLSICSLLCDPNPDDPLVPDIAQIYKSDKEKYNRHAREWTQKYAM
Sequence of TFAP2A (chain, as listed by the source): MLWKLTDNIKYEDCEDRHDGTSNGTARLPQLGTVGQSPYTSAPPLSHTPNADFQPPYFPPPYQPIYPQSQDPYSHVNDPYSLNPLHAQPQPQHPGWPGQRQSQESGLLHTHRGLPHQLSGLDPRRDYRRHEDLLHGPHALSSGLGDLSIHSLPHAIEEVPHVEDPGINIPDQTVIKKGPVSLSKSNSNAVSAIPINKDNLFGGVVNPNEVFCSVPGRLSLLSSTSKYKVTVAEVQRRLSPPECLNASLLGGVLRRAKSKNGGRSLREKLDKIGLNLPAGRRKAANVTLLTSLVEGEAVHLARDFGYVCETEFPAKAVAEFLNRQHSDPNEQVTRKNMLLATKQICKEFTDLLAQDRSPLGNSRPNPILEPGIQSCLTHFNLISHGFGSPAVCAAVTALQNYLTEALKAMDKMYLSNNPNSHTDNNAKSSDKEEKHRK

Substance	solubility change mitosis (log2) [1]	melting temperature ([2]; cell cycle stage: G1/S)	melting temperature ([2]; cell cycle stage: mitosis)	solubility in G1/S (log2) [3]
ARSB	-0.198	56.3 °C	57.3 °C	0.364
CRYBG3	-0.00814	51.3 °C	50.4 °C	-0.18
GTF2H1	0.114	50.2 °C	49.1 °C	-0.0948
KIAA1217	0.0131	49.8 °C	50.7 °C	0.0766
LLPH	1.03	58.7 °C	55.8 °C	-1.23
MAAAAAALSGAGTPPAGGGAGGGGAGGGGSPPGGWAVARLEGREFEYLMKKRSVTIGRNSSQGSVDVSMGHSSFISRRHLEIFTPPGGGGHGGAAPELPPAQPRPDAGGDFYLRCLGKNGVFVDGVFQRRGAPPLQLPRVCTFRFPSTNIKITFTALSSEKREKQEASESPVKAVQPHISPLTINIPDTMAHLISPLPSPTGTISAANSCPSSPRGAGSSGYKVGRVMPSDLNLMADNSQPENEKEASGGDSPKDDSKPPYSYAQLIVQAITMAPDKQLTLNGIYTHITKNYPYYRTADKGWQNSIRHNLSLNRYFIKVPRSQEEPGKGSFWRIDPASESKLIEQAFRKRRPRGVPCFRTPLGPLSSRSAPASPNHAGVLSAHSSGAQTPESLSREGSPAPLEPEPGAAQPKLAVIQEARFAQSAPGSPLSSQPVLITVQRQLPQAIKPVTYTVATPVTTSTSQPPVVQTVHVVHQIPAVSVTSVAGLAPANTYTVSGQAVVTPAAVLAPPKAEAQENGDHREVKVKVEPIPAIGHATLGTASRIIQTAQTTPVQTVTIVQQAPLGQHQLPIKTVTQNGTHVASVPTAVHGQVNNAAASPLHMLATHASASASLPTKRHNGDQPEQPELKRIKTEDGEGIVIALSVDTPPAAVREKGVQN [FOXK2]	-0.0189	–	50.7 °C	0.267
MAAAATMAAAARELVLRAGTSDMEEEEGPLAGGPGLQEPLQLGELDITSDEFILDEVDVHIQANLEDELVKEALKTGVDLRHYSKQVELELQQIEQKSIRDYIQESENIASLHNQITACDAVLERMEQMLGAFQSDLSSISSEIRTLQEQSGAMNIRLRNRQAVRGKLGELVDGLVVPSALVTAILEAPVTEPRFLEQLQELDAKAAAVREQEARGTAACADVRGVLDRLRVKAVTKIREFILQKIYSFRKPMTNYQIPQTALLKYRFFYQFLLGNERATAKEIRDEYVETLSKIYLSYYRSYLGRLMKVQYEEVAEKDDLMGVEDTAKKGFFSKPSLRSRNTIFTLGTRGSVISPTELEAPILVPHTAQRGEQRYPFEALFRSQHYALLDNSCREYLFICEFFVVSGPAAHDLFHAVMGRTLSMTLKHLDSYLADCYDAIAVFLCIHIVLRFRNIAAKRDVPALDRYWEQVLALLWPRFELILEMNVQSVRSTDPQRLGGLDTRPHYITRRYAEFSSALVSINQTIPNERTMQLLGQLQVEVENFVLRVAAEFSSRKEQLVFLINNYDMMLGVLMERAADDSKEVESFQQLLNARTQEFIEELLSPPFGGLVAFVKEAEALIERGQAERLRGEEARVTQLIRGFGSSWKSSVESLSQDVMRSFTNFRNGTSIIQGALTQLIQLYHRFHRVLSQPQLRALPARAELINIHHLMVELKKHKPNF [VPS52]	-0.138	51.5 °C	50.4 °C	-0.194
MAAAEEGCSVGAEADRELEELLESALDDFDKAKPSPAPPSTTTAPDASGPQKRSPGDTAKDALFASQEKFFQELFDSELASQATAEFEKAMKELAEEEPHLVEQFQKLSEAAGRVGSDMTSQQEFTSCLKETLSGLAKNATDLQNSSMSEEELTKAMEGLGMDEGDGEGNILPIMQSIMQNLLSKDVLYPSLKEITEKYPEWLQSHRESLPPEQFEKYQEQHSVMCKICEQFEAETPTDSETTQKARFEMVLDLMQQLQDLGHPPKELAGEMPPGLNFDLDALNLSGPPGASGEQCLIM [G3V3G9]	-0.158	51.1 °C	51.3 °C	-0.172
MAAEEKDPLSYFAAYGSSSSGSSDEEDNIEPEETSRRTPDPAKSAGGCRNKAEKRLPGPDELFRSVTRPAFLYNPLNKQIDWERHVVKAPEEPPKEFKIWKSNYVPPPETYTTEKKPPPPELDMAIKWSNIYEDNGDDAPQNAKKARLLPEGEETLESDDEKDEHTSKKRKVEPGEPAKKKK [C1ORF52]	0.413	54.3 °C	52.5 °C	0.074
MAAGERSWCLCKLLRFFYSLFFPGLIVCGTLCVCLVIVLWGIRLLLQRKKKLVSTSKNGKNQMVIAFFHPYCNAGGGGERVLWCALRALQKKYPEAVYVVYTGDVNVNGQQILEGAFRRFNIRLIHPVQFVFLRKRYLVEDSLYPHFTLLGQSLGSIFLGWEALMQCVPDVYIDSMGYAFTLPLFKYIGGCQVGSYVHYPTISTDMLSVVKNQNIGFNNAAFITRNPFLSKVKLIYYYLFAFIYGLVGSCSDVVMVNSSWTLNHILSLWKVGNCTNIVYPPCDVQTFLDIPLHEKKMTPGHLLVSVGQFRPEKNHPLQIRAFAKLLNKKMVESPPSLKLVLIGGCRNKDDELRVNQLRRLSEDLGVQEYVEFKINIPFDELKNYLSEATIGLHTMWNEHFGIGVVECMAAGTIILAHNSGGPKLDIVVPHEGDITGFLAESEEDYAETIAHILSMSAEKRLQIRKSARASVSRFSDQEFEVTFLSSVEKLFK [ALG11]	-0.199	–	52.4 °C	0.114
MAAPSEVAAIAPGEGDGGGGGFGSWLDGRLEALGVDRAVYGAYILGILQEEEEEEKLDALQGILSAFLEEDSLLNICKEIVERWSETQNVVTKVKKEDEVQAIATLIEKQAQIVVKPRMVSEEEKQRKAALLAQYADVTDEEDEADEKDDSGATTMNIGSDKLLFRNTNVEDVLNARKLERDSLRDESQRKKEQDKLQRERDKLAKQERKEKEKKRTQRGERKR [CCDC43]	0.216	53.8 °C	53.7 °C	0.483
MYRLMSAVTARAAAPGGLASSCGRRGVHQRAGLPPLGHGWVGGLGLGLGLALGVKLAGGLRGAAPAQSPAAPDPEASPLAEPPQEQSLAPWSPQTPAPPCSRCFARAIESSRDLLHRIKDEVGAPGIVVGVSVDGKEVWSEGLGYADVENRVPCKPETVMRIASISKSLTMVALAKLWEAGKLDLDIPVQHYVPEFPEKEYEGEKVSVTTRLLISHLSGIRHYEKDIKKVKEEKAYKALKMMKENVAFEQEKEGKSNEKNDFTKFKTEQENEAKCRNSKPGKKKNDFEQGELYLREKFENSIESLRLFKNDPLFFKPGSQFLYSTFGYTLLAAIVERASGCKYLDYMQKIFHDLDMLTTVQEENEPVIYNRARFYVYNKKKRLVNTPYVDNSYKWAGGGFLSTVGDLLKFGNAMLYGYQVGLFKNSNENLLPGYLKPETMVMMWTPVPNTEMSWDKEGKYAMAWGVVERKQTYGSCRKQRHYASHTGGAVGASSVLLVLPEELDTETINNKVPPRGIIVSIICNMQSVGLNSTALKIALEFDKDRSD [LACTB]	0.376	–	–	-2.26
MYRSGERLLGSHALPAEQRDFLPLETTNNNNNHHQPGAWARRAGSSASSPPSASSSPHPSAAVPAADPADSASGSSNKRKRDNKASGGRAAGGGRADGGGVVYSGTPWKRRNYNQGVVGLHEEISDFYEYMSPRPEEEKMRMEVVNRIESVIKELWPSADVQIFGSFKTGLYLPTSDIDLVVFGKWENLPLWTLEEALRKHKVADEDSVKVLDKATVPIIKLTDSFTEVKVDISFNVQNGVRAADLIKDFTKKYPVLPYLVLVLKQFLLQRDLNEVFTGGIGSYSLFLMAVSFLQLHPREDACIPNTNYGVLLIEFFELYGRHFNYLKTGIRIKDGGSYVAKDEVQKNMLDGYRPSMLYIEDPLQPGNDVGRSSYGAMQVKQAFDYAYVVLSHAVSPIAKYYPNNETESILGRIIRVTDEVATYRDWISKQWGLKNRPEPSCNGPVSSSSATQSSSSDVDSDATPCKTPKQLLCRPSTGNRVGSQDVSLESSQAVGKMQSTQTTNTSNSTNKSQHGSARLFRSSSKGFQGTTQTSHGSLMTNKQHQGKSNNQYYHGKKRKHKRDAPLSDLCR [PAPD5]	0.189	–	–	-0.654
PEAK1	0.302	–	–	-0.569
PHRF1	0.566	–	–	-0.629
PPP3R1	-0.104	–	–	0.385
PTPN6	0.0101	–	–	0.166
RLF	0.617	–	–	-0.887
SYNM	0.752	–	–	-0.94
TET2	-0.257	–	–	0.155
TFAP2A	0.505	–	–	0.185
UBE2D1	-0.0476	–	–	0.473
VPS13B	-0.0582	–	–	-0.247
